Source: US20220152100A1, “METHODS FOR CONTROLLED ACTIVATION OR ELIMINATION OF THERAPEUTIC CELLS” (Bellicum Pharmaceuticals, Inc., priority 2014, published 2022)
Substitutions are numbered along the chain they refer to. Names may count otherwise.

B1: D330A-N405Q: chimeric modified Caspase-9 polypeptide, double mutant, SEQ ID NO: 28 (protein)
chain: GFGDVGALESLRGNADLAYILSMEPCGHCLIINNVNFCRESGLRTRTGSNIDCEKLRRRFSSLHFMVEVKGDLTAKKMVLALLELARQDHGALDCCVVVILSHGCQASHLQFPGAVYGTDGCPVSVEKIVNIFNGTSCPSLGGKPKLFFIQACGGEQKDHGFEVASTSPEDESPGSNPEPDATPFQEGLRTFDQLAAISSLPTPSDIFVSYSTFPGFVSWRDPKSGSWYVETLDDIFEQWAHSEDLQSLLLRVANAVSVKGIYKQMPGCFQFLRKKLFFKTS
B2: N405A: chimeric modified Caspase-9 polypeptide (protein, UniProt P55211 1-416, looked up, variant N405A)
chain: MDEADRRLLRRCRLRLVEELQVDQLWDALLSRELFRPHMIEDIQRAGSGSRRDQARQLIIDLETRGSQALPLFISCLEDTGQDMLASFLRTNRQAAKLSKPTLENLTPVVLRPEIRKPEVLRPETPRPVDIGSGGFGDVGALESLRGNADLAYILSMEPCGHCLIINNVNFCRESGLRTRTGSNIDCEKLRRRFSSLHFMVEVKGDLTAKKMVLALLELAQQDHGALDCCVVVILSHGCQASHLQFPGAVYGTDGCPVSVEKIVNIFNGTSCPSLGGKPKLFFIQACGGEQKDHGFEVASTSPEDESPGSNPEPDATPFQEGLRTFDQLDAISSLPTPSDIFVSYSTFPGFVSWRDPKSGSWYVETLDDIFEQWAHSEDLQSLLLRVANAVSVKGIYKQMPGCFAFLRKKLFFKTS
modifications: chimeric, fused to dimerization domain
notes: chimeric modified Caspase-9 polypeptide
B3: C403P: chimeric modified Caspase-9 polypeptide (protein, UniProt P55211 1-416, looked up, variant C403P)
chain: B2 chain with C403P, A405N
modifications: chimeric, fused to dimerization domain
notes: as for B2
B4: N405F: chimeric modified Caspase-9 polypeptide (protein, UniProt P55211 1-416, looked up, variant N405F)
chain: B2 chain with A405F
modifications: chimeric, fused to dimerization domain
notes: as for B2
B5: ^402GCFNF^406ISAQT (Casp-10): Caspase-9 with dimerization residues 402-406 replaced by those of Caspase-10 (protein, UniProt P55211 1-416, looked up, variant G402I C403S F404A N405Q F406T)
chain: B2 chain with G402I, C403S, F404A, A405Q, F406T
modifications: Caspase-10 dimerization residues swapped in
B6: G402I: chimeric modified Caspase-9 polypeptide (protein, UniProt P55211 1-416, looked up, variant G402I)
chain: B2 chain with G402I, A405N
modifications: chimeric, fused to dimerization domain
notes: as for B2
B7: G402Y: chimeric modified Caspase-9 polypeptide (protein, UniProt P55211 1-416, looked up, variant G402Y)
chain: B2 chain with G402Y, A405N
modifications: chimeric, fused to dimerization domain
notes: as for B2
B8: ^316ATPF^319AVPI: Caspase-9 with XIAP-binding tetrapeptide ATPF replaced by AVPI from SMAC/DIABLO (protein, UniProt P55211 1-416, looked up, variant T317V F319I)
chain: B2 chain with T317V, F319I, A405N
modifications: ATPF replaced by SMAC AVPI motif
B9: ^402GCFNF^406AAAAA: Caspase-9 with dimerization residues 402-406 replaced by AAAAA (protein, UniProt P55211 1-416, looked up, variant G402A C403A F404A N405A F406A)
chain: B2 chain with G402A, C403A, F404A, F406A
B10: D327G: chimeric modified Caspase-9 polypeptide (protein)
chain: VDGFGDVGALESLRGNADLAYILSMEPCGHCLIINNVNFCRESGLRTRTGSNIDCEKLRRRFSSLHFMVEVKGDLTAKKMVLALLELARQDHGALDCCVVVILSHGCQASHLQFPGAVYGTDGCPVSVEKIVNIFNGTSCPSLGGKPKLFFIQACGGEQKDHGFEVASTSPEDESPGSNPEPDATPFQEGLRTFGQLDAISSLPTPSDIFVSYSTFPGFVSWRDPKSGSWYVETLDDIFEQWAHSEDLQSLLLRVANAVSVKGIYKQMPGCFNFLRKKLFFKTSASRA
B11: D327K: chimeric modified Caspase-9 polypeptide (protein)
chain: B10 chain with G195K
B12: A331K: chimeric modified Caspase-9 polypeptide (protein)
chain: B10 chain with G195D, A199K
B13: Q328K: chimeric modified Caspase-9 polypeptide (protein)
chain: B10 chain with G195D, Q196K
B14: L329K: chimeric modified Caspase-9 polypeptide (protein)
chain: B10 chain with G195D, L197K
B15: D330N: chimeric modified Caspase-9 polypeptide (protein)
chain: B10 chain with G195D, D198N
B16: T317C: chimeric modified Caspase-9 polypeptide (protein)
chain: B10 chain with T185C, G195D
B17: F326K: chimeric modified Caspase-9 polypeptide (protein)
chain: B10 chain with F194K, G195D
B18: T317A: chimeric modified Caspase-9 polypeptide (protein)
chain: B10 chain with T185A, G195D
B19: Q328R: chimeric modified Caspase-9 polypeptide (protein)
chain: B10 chain with G195D, Q196R
B20: D327R: chimeric modified Caspase-9 polypeptide (protein)
chain: B10 chain with G195R
B21: L329G: chimeric modified Caspase-9 polypeptide (protein)
chain: B10 chain with G195D, L197G

Tested on: HEK293T/16 cells
Experiment: SEAP-based surrogate killing assay of iCasp9 mutants
Type: cell-based, human
Details: for effect on basal / catalytic activity: in words, versus wild type
Experimental: Early passage HEK293T/16 cells (ATCC, Manassas, Va.) were maintained in IMDM, GlutaMAX™ (Life Technologies, Carlsbad, Calif.) supplemented with 10% FBS, 100 U/mL penicillin, and 100 […] until transfection in a humidified, 37° C., 5% CO2/95% air atmosphere. Cells in logarithmic-phase growth were transiently transfected with 800 ng to 2 μg of expression plasmid encoding iCasp9 mutants and 500 ng of an expression plasmid encoding SRα promoter driven SEAP per million cells in 15-mL conical tubes. […] GeneJammer® Transfection Reagent at a ratio of 3 μl per ug of plasmid DNA was used to transiently transfect HEK293T/16 cells in the absence of antibiotics. 100 μl or 2 mL of the transfection mixture was added to each well in 96-well or 6-well plate, respectively.
Briefly, after 65° C. heat denaturation for 45 minutes to reduce background caused by endogenous (and serum-derived) alkaline phosphatases that are sensitive to heat, 5 μl of supernatants was added to 95 μl of PBS and added to 100 μl of substrate buffer, containing 1 μl of 100 mM 4-methylumbelliferyl phosphate (4-MUP; Sigma, St. Louis, Mo.) re-suspended in 2 M diethanolamine. Hydrolysis of 4-MUP by SEAP produces a fluorescent […] with excitation/emission (355/460 nm), which can be easily measured. Assays were performed in black opaque 96-well plates to minimize fluorescence leakage between wells. […] of the mixture was seeded onto each well of a 96-well plate. […] For the assay, 4-methylumbelliferyl phosphate substrate was hydrolyzed by SEAP to 4-methylumbelliferon, a metabolite that can be excited with 364 nm and detected with an emission filter of 448 nm. Since SEAP is used as a marker for cell viability, reduced SEAP reading corresponds with increased iCaspase-9 activities.

Molecule | relative SEAP activity Units (basal, without AP1903) (1 μg iCasp9 per million cells) | relative SEAP activity Units (basal, without AP1903) (2 μg iCasp9 per million cells) | effect on basal / catalytic activity
B1 | 205772 | 174366 | intermediate
B2 |  |  | no effect
B3 |  |  | catalytically inactive
B4 |  |  | lowered basal activity
B5 |  |  | reduced basal activity but higher IC50
B6 |  |  | catalytically inactive
B7 |  |  | catalytically inactive
B8 |  |  | no effect
B9 |  |  | catalytically inactive
B10 |  |  | did not lower basal activity
B11 |  |  | did not lower basal activity
B12 |  |  | did not lower basal activity
B13 |  |  | did not lower basal activity
B14 |  |  | did not lower basal activity
B15 |  |  | less basal activity than wild type Caspase-9
B16 |  |  | no effect
B17 |  |  | did not lower basal activity
B18 |  |  | can reduce basal activity without a large shift in the IC50
B19 |  |  | did not lower basal activity
B20 |  |  | did not lower basal activity
B21 |  |  | did not lower basal activity
